The text below walks through data of patent US20140235701, “NGF APTAMER AND APPLICATION THEREOF” (RIBOMIC INC., published 2014).

One may read the IC50 as the concentration at which inhibition is half-maximal.

The chains are these.
B1: SEQ ID NO: 15 (ssRNA)
RNA: GGGAGAACUUCGACCAGAAGUGCAAUACUUUCGCGGCAUAUGUGCAAACCUUGCCACGACUAUGUGCGCAUAC
modifications: 2'-F C and U; 2'-OH G; 2'-H (deoxy) A
B2: SEQ ID NO: 14 (ssRNA)
RNA: GGGAGAACUUCGACCAGAAGUGCAAUACUUUCGCGGCAUAUGUGCAAACCUUGCCACGACUAUGUGCGCAUACAUGGA
modifications: 2'-F C and U; 2'-OH G; 2'-H (deoxy) A
B3: SEQ ID NO: 16 (ssRNA)
RNA: CGACCAGAAGUGCAAUACUUUCGCGGCAUAUGUGCAAACCUUGCCACGACUAUGUGCGCAUAC
modifications: 2'-F C and U; 2'-OH G; 2'-H (deoxy) A
B4: SEQ ID NO: 111(1) (ssRNA)
RNA: GGGUCCUGUCUAAGAGUUUCCGUCUCGUAGACUGUUACCC
modifications: 2'-OMe except 2'-F C5,U7,U17-19,C20,C24,U25,U33,U36, 2'-OH G8,G34, dA12,dA13; 3' idT
B5: SEQ ID NO: 2 (ssRNA)
RNA: GGGAGAACUUCGACCAGAAGUCCAAACGGGACUUUAUACCUCUGAGUCGCCUACGCUCCUAUGUGCGCAUACAUGGAUCCUC
modifications: 2'-F C and U; 2'-OH G; 2'-H (deoxy) A
B6: SEQ ID NO: 3 (ssRNA)
RNA: GGGAGAACUUCGACCAGAAGUUGGCACAUCCUGCUGCGUAGUUUCCGUCUCCGUGGCUGUUAUGUGCGCAUACAUGGAUCCUC
modifications: 2'-F C and U; 2'-OH G; 2'-H (deoxy) A
B7: SEQ ID NO: 4 (ssRNA)
RNA: GGGAGAACUUCGACCAGAAGUACGUUAGUACGUUUGCAUAUGUACAACCUUGCAUACGAUACGUAGAUUAUGUGCGCAUACAUGGAUCCUC
modifications: 2'-F C and U; 2'-OH G; 2'-H (deoxy) A
B8: SEQ ID NO: 7 (ssRNA)
RNA: GGGAGAACUUCGACCAGAAGACGCACCUCUUAUCACACAUGCGUCAGCCUUGUGAUACUAUGUGCGCAUACAUGGAUCCUC
modifications: 2'-F C and U; 2'-OH G; 2'-H (deoxy) A
B9: SEQ ID NO: 5 (ssRNA)
RNA: GGGAGAACUUCGACCAGAAGUUAGAAGAGGACUAGUUGCUAAUGCCCUGGUUCGUCGCUAUAUGUGCGCAUACAUGGAUCCUC
modifications: 2'-F C and U; 2'-OH G; 2'-H (deoxy) A

Bounds are passed on as bounds.

The target of one data set is T1, NGF (nerve growth factor) (Homo sapiens, UniProt P01138 P01138:122-241). Nature of the data set: SPR; more than 40N; high inhibition of receptor binding. The following applies: tags: R&D Systems; chain copies: 2. For orientation: In SPR one partner is held on a chip, and binding of the other changes the refractive index at the surface.
T1 sequence (P01138 122-241, one chain of several): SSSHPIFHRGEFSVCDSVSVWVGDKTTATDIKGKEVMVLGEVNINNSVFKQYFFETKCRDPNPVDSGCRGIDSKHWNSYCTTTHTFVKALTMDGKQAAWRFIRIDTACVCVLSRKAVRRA
With B1, the binding result was “binds”. On to B2, for which the binding result was “binds”. On to B3, for which the binding result was “binds”. On the same count and under the same terms, in the case of GGGGUCCUGCUGCGUAGUUUCCGUCUCCGUGGCUGUUACCCC (ssRNA, 2'-F C and U; 2'-OH G; 2'-H (deoxy) A) [SEQ ID NO: 13] it was “binds”.

Another data set addresses T1, NGF (nerve growth factor). Nature of the data set: cell_activity; neurite; TF-1 >0.3. The following applies: tags: R&D Systems; chain copies: 2.
GGGUCCUGGAUAAGAGUUUCCGUCUCGUAUCCUGUUACCC (ssRNA, as 82(48) without 5' idT; PS between U7 and G8) [SEQ ID NO: 82(57)] gave a half-maximal inhibitory concentration (IC50) of 0.045 nM. Molecule GGGUCCUGGAUAAGAGUUUCCGUCUCGUAUCCUGUUACCC (ssRNA, as 82(48) without 5' idT; PS between A13 and G14) [SEQ ID NO: 82(61)] yielded an IC50 of 0.031 nM. Still for that read-out and setting: the figure for GGGUCCUGGAUAAGAGUUUCCGUCUCGUAUCCUGUUACCC (ssRNA, as 82(48) without 5' idT; PS between G8 and G9) [SEQ ID NO: 82(58)] is 0.072 nM. In turn, GGGUCCUGGAUAAGAGUUUCCGUCUCGUAUCCUGUUACCC (ssRNA, as 82(48) without 5' idT; PS between U33 and G34) [SEQ ID NO: 82(62)] returned an IC50 of 0.039 nM. Same read-out and setting: the figure for GGGUCCUGGAUAAGAGUUUCCGUCUCGUAUCCUGUUACCC (ssRNA, as 82(48) without 5' idT; PS between U11 and A12) [SEQ ID NO: 82(59)] is 0.034 nM; for GGGUCCUGUGGAAGAGUUUCCGUCUCGUCCACUGUUACCC (ssRNA, as 89(4) plus 2'-OMe U4,A15,A31,A37; no 5' idT) [SEQ ID NO: 89(5)] it is 0.079 nM; for B4 it is 0.06 nM.

A further data set concerns the target T1, NGF (nerve growth factor). Nature of the data set: SPR; strong binding. The following applies: tags: R&D Systems; chain copies: 2.
For GGGUCCUGCUGCGCAGUUUCCGUCUGCGUGGCUGUUACCC (ssRNA, 2'-F C and U; 2'-OH G; 2'-H (deoxy) A) [SEQ ID NO: 39], the binding result is recorded as “binds”. Same read-out and setting: the entry for GGGUCCUGCUGCGCAGUUUCCCUCUGCGUGGCUGUUACCC (ssRNA, 2'-F C and U; 2'-OH G; 2'-H (deoxy) A) [SEQ ID NO: 42] is “binds”. Consider GGGUCCUGUUGCGUAGUUUCCUUCUACGUGGCUGUUACCC (ssRNA, 2'-F C and U; 2'-OH G; 2'-H (deoxy) A) [SEQ ID NO: 45], for which the binding result is given as “binds”. The same measure, in the same setting: the entry for GGGUCCUGCUGCGAAGUUUCCUUCUUCGUGGCUGUUACCC (ssRNA, 2'-F C and U; 2'-OH G; 2'-H (deoxy) A) [SEQ ID NO: 41] is “binds”; for GGGUCCUGCUGCGUAGUUUCCAUCUGCGUGGCUGUUACCC (ssRNA, 2'-F C and U; 2'-OH G; 2'-H (deoxy) A) [SEQ ID NO: 40] it is “binds”; for GGGUCCUGCUGCGGAGUUUCCUUCUUCGUGGCUGUUACCC (ssRNA, 2'-F C and U; 2'-OH G; 2'-H (deoxy) A) [SEQ ID NO: 43] it is “binds”.

The next data set concerns the target T1, NGF (nerve growth factor). Nature of the data set: SPR; strong neurite inhibition at 10 nM. As to conditions: tags: R&D Systems; chain copies: 2.
In the case of GGGUCCUGCUGCGUAGUUUCCAUCUUCGUGGCUGUUACCC (ssRNA, 2'-F C/U, dA, 2'-OH G) [SEQ ID NO: 95], the binding result is “binds”.

In the case of GGGUCCUGCCGCGUAGUUUCCGUCUUCGCGGUUGUUACCC (ssRNA, 2'-F C/U, dA, 2'-OH G) [SEQ ID NO: 93], the binding result was “binds”.

In the case of GGGUCCUGCUACGUAGUUUCCGUCUGCGUGGCUGUUACCC (ssRNA, 2'-F C/U, dA, 2'-OH G) [SEQ ID NO: 97], the binding result was “binds”.

As to GGGUCCUGCUGCGUAGUUUCCGUCUGCGGAGCUGUUACCC (ssRNA, 2'-F C/U, dA, 2'-OH G) [SEQ ID NO: 94], the binding result is given as “binds”. Still for that read-out and setting: the entry for GGGUCCUGCUACGUAGUUUCCGUCUACGUGGCUGUUACCC (ssRNA, 2'-F C/U, dA, 2'-OH G) [SEQ ID NO: 98] is “binds”; for GGGUCCUGCUGCGUAGUUUCCGUCUAUGUGGCUGUUACCC (ssRNA, 2'-F C/U, dA, 2'-OH G) [SEQ ID NO: 96] it is “binds”.

The target in another data set is T1, NGF (nerve growth factor). The data set is described as follows: SPR; strong inhibition of NGF-receptor binding. As to conditions: tags: R&D Systems; chain copies: 2. As to the method:
As directed in BIAcore's protocol, Protein A (21181, PIERCE) was immobilized on a CM5 sensor chip. About 700 to 1200 RU of human TrkA fused with the Fc portion of IgG (175-TK, R&D systems) or human P75 (367-NR, R&D systems) was immobilized thereon. As the analyte, a mixture of NGF (0.1 μM) and each aptamer (0.3 μM) was injected after being allowed to stand for 30 minutes. […] When NGF binds stronger to a receptor than an aptamer, the aptamer may be removed and NGF may bind to the receptor. Before starting the inhibition experiment, binding of TrkA or p75 and NGF was confirmed.
Consider B5, for which the binding result is given as “binds”. The same measure, in the same setting: in the case of B6 it was “binds”; in that of B7, “binds”.

On to B8, for which the binding result is listed as “binds”. Same read-out and setting: the entry for B9 is “binds”.

The next data set addresses T1, NGF (nerve growth factor). Nature of the data set: cell_activity; neurite; TF-1 <0.3. As to conditions: tags: R&D Systems; chain copies: 2.
GGGUCCUGAUUAAGAGUUUCCGUCUCGUAAUCUGUUACCC (ssRNA, 2'-F C/U, dA, 2'-OH G) [SEQ ID NO: 76] yielded an IC50 of less than 0.3 nM.

GGGUCCUGGCUAAGAGUUUCCGUCUCGUAGUCUGUUACCC (ssRNA, 2'-F C/U, dA, 2'-OH G) [SEQ ID NO: 80] displayed an IC50 of less than 0.3 nM. On the same count and under the same terms, in the case of GGGUCCUGGAUAAGAGUUUCCGUCUCGUAUCCUGUUACCC (ssRNA, 2'-F C/U, dA, 2'-OH G) [SEQ ID NO: 82] it was less than 0.3 nM; in that of GGGUCCUGGCCAAGAGUUUCCGUCUCGUGGUCUGUUACCC (ssRNA, 2'-F C/U, dA, 2'-OH G) [SEQ ID NO: 78], less than 0.3 nM; in that of GGGUCCUGACUAAGAGUUUCCGUCUCGUAGUCUGUUACCC (ssRNA, 2'-F C/U, dA, 2'-OH G) [SEQ ID NO: 77], less than 0.3 nM.

Turning to GGGUCCUGGUUAAGAGUUUCCGUCUCGUAACCUGUUACCC (ssRNA, 2'-F C/U, dA, 2'-OH G) [SEQ ID NO: 79], the IC50 was less than 0.3 nM. Same read-out and setting: in the case of GGGUCCUGUACAAGAGUUUCCGUCUCGUGUACUGUUACCC (ssRNA, 2'-F C/U, dA, 2'-OH G) [SEQ ID NO: 83] it was less than 0.3 nM.
